Data from patent EP4803542A2 (Sanofi Biotechnology, dated 2026).

Target: T1, human IL-1R3 expressed on cells (SK-MEL-30 and other human cell lines) (human, UniProt Q9NPH3 21-570)
T1 construct: whole, on cells; also called hIL1R3; IL-1RAcP
T1 sequence (looked up): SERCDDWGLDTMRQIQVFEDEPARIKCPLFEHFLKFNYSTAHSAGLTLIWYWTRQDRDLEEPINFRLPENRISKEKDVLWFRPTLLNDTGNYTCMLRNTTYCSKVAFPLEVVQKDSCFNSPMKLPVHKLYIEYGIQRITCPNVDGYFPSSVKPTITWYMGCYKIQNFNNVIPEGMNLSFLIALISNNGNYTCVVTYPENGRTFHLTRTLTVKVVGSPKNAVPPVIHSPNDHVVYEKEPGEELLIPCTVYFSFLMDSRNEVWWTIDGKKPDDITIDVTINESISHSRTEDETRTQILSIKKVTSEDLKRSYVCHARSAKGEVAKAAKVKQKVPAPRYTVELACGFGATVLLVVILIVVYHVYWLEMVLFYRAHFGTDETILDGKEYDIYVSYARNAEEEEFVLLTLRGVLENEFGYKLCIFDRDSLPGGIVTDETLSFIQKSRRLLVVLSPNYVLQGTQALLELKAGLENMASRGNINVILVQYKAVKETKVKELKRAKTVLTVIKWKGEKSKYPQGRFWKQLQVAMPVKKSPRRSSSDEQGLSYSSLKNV
Experiment: flow cytometry on the high-IL-1R3-expressing cell line SK-MEL-30

EC50: 0.307 µg/mL
B1: MAB-16-0030, humanized anti-IL-1R3 IgG1-LALA antibody (antibody, V domains shown)
VH: EVQLEESGGRLVQPGTSLRLSCAVSGFSLSSYDMSWVRQAPGKGLEWVSTIYIGGTTAYASWPKGRFTISKTNSKNTLYLQMNSLRAEDTAVYFCARLQGANYYNSLALWGQGTLVTVSS
VL: DVQMTQSPSSLSASVGDRVTITCQASQSIYSFLSWYQQKPGQAPKLLIYAASDLESGVPSRFSGSGSGTDFTLTISSLQPEDFATYYCQCNYIIDYGAFGQGTKVVIKR
notes: Humanized IgG1 with L234A and L235A (IgG1-LALA); also called anti-hIL-1R3 antibody MAB-16-0030; IgG1-LALA version of MAB-16-0030
